Residue numbers refer to the chain shown, from its start. Like-named read-outs stand apart in the source and are kept apart here. Each block holds one binder with its values, some of them ahead of it.
Assays:
[1] = molecular target: T1, rhesus monkey TfR1 fused to EGFP, on CHO-rhTfR1-EGFP cells (Macaca mulatta, UniProt H9Z2T8); test: flow cytometry on cells
[2] = molecular target: T2, human TfR1 fused to EGFP, on CHO-hTfR1-EGFP cells (human, UniProt P02786); test: immunostaining of cells or tissue
[3] = molecular target: T3, mouse TfR1 fused to EGFP, on CHO-mTfR1-EGFP cells (Mus musculus, UniProt Q62351); test: immunostaining of cells or tissue
[4] = molecular target: mFc-mouse TfR1 ectodomain (mouse IgG2a Fc fusion) (Mus musculus, UniProt Q62351); test: SPR
[5] = molecular target: T2, human TfR1 fused to EGFP, on …; test: flow cytometry on cells
[6] = molecular target: mFc-human TfR1 ectodomain (mouse IgG2a Fc fusion) (Homo sapiens, UniProt P02786); test: SPR
[7] = molecular target: mouse NTSR1 fused to GFP, on Expi293 cells (mouse, UniProt O88319); test: flow cytometry on cells
[8] = molecular target: mFc-rhesus monkey TfR1 ectodomain (mouse IgG2a Fc fusion) (Macaca mulatta, UniProt H9Z2T8); test: SPR
[9] = molecular target: T3, mouse TfR1 fused to EGFP, on …; test: immunostaining of cells or tissue; remark: listed apart in the source
[10] = molecular target: T1, rhesus monkey TfR1 fused to EGFP, on …; test: immunostaining of cells or tissue
[11] = molecular target: T1, rhesus monkey TfR1 fused to EGFP, on …; test: immunostaining of cells or tissue; remark: listed apart in the source

T3 sequence (Q62351 whole entry, the tested form may be a part): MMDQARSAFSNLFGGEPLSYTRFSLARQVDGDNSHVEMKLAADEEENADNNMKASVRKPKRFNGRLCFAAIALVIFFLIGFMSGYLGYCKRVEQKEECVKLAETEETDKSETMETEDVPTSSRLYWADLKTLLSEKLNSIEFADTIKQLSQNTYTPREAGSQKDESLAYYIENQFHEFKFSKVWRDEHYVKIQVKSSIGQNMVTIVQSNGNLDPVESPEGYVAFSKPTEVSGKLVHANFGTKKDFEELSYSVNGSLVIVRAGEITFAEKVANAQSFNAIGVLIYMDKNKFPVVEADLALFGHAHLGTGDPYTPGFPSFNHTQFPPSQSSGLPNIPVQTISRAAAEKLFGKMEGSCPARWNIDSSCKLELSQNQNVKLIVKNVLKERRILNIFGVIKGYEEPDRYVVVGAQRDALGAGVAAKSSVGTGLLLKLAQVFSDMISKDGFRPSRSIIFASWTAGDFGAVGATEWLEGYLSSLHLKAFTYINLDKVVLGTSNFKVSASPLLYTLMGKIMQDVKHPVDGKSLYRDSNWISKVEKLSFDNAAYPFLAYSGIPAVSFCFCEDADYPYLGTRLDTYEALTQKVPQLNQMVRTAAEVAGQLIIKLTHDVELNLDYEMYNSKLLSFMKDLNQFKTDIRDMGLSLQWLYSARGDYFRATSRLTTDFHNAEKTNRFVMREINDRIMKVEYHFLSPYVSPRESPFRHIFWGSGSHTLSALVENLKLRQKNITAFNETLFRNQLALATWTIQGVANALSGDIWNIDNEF
mFc-mouse TfR1 ectodomain (mouse IgG2a Fc fusion), sequence (Q62351 89-763): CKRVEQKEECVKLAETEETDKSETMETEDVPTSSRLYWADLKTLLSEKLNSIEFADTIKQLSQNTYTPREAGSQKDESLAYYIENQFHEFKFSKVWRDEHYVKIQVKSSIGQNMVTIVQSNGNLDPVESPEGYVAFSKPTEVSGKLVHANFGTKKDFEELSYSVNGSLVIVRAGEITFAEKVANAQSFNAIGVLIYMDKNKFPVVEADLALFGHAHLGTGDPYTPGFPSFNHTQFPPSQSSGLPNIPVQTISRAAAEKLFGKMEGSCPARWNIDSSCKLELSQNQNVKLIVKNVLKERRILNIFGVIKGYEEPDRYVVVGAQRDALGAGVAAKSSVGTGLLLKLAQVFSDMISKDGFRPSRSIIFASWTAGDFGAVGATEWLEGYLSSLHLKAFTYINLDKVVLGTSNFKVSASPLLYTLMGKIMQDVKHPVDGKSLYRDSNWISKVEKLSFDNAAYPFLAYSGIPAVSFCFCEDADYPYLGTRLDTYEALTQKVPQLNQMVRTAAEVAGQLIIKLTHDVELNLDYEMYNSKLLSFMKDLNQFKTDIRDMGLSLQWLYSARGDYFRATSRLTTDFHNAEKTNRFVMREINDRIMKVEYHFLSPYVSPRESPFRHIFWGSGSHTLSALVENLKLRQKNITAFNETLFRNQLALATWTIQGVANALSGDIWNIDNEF
mouse NTSR1 fused to GFP, on Expi293 cells, sequence (O88319 whole entry, the tested form may be a part): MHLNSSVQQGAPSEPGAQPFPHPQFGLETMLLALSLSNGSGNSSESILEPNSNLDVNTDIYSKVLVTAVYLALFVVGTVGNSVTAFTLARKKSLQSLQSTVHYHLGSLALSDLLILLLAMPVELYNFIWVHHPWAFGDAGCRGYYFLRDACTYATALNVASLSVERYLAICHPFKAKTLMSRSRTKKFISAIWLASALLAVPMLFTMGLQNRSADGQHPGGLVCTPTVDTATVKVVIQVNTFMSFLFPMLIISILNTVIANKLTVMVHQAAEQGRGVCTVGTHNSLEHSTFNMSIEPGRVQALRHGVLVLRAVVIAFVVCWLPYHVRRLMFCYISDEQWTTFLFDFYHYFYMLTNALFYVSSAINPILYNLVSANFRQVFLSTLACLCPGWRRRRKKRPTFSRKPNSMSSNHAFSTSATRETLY

B1: VHH H3 (VHH)
VHH: EVQLVESGGGEVQPGGSLKLSCVASGTDFSINFVRWYRQRPGKQREWVAGFTANGDTNYPDSMKGRFTISRDNAKNTVYLQINSLKSEDTAVYYCYMLDNWGQGTQVTVSS
binding result [1]: binds | binding result [2]: binds | binding result [3]: binds

B2: VHH B8 (VHH)
chain: EVQLVESGGGVVQPGGSLRLSCAASGEIFSINFMRWYRQAPGKQREWVAGFTRDGSTNYPDSAKGRFTISRDNAKNTVYLQIDSLKPEDTAVYYCYMLDTWGQGTQVTVSS
Kd [4]: ~30 nM | Kd [5]: 2.4 nM | binding result [1]: binds

B3: B8V34-NT(8-13) (VHH)
VHH: B2 chain with F29R, S62I
Kd [6]: 16.9 nM

B8: VHH B6 (VHH)
VHH: EVQLVESGGGLVQPGGSLRLSCTASGGPIEQYPMGWFRRAPGKERELVASISRSGDGTYYAISSVKGRFTISRDNAENTVFLQMNSLKPDDTAVYYCGAGINPTKIWGQGTQVTVSS
Kd [5]: 2.7 nM | binding result [9]: no binding (tested: 50 µg/ml) | binding result [10]: no binding (tested: 50 µg/ml)

B9: VHH C5 (VHH)
chain: EVQLVESGGGVVQPGGSLKLSCVASGTDFSINFIRWYRQAPGKQREFVAGFTATGNTNYADSMKGRFTISRDNTKNAVYLQIDSLKPEDTAVYYCYMLDKWGQGTQVTVSS
Kd [4]: ~110 nM | Kd [5]: 3.1 nM | binding result [11]: binds

B12: C5-NT(8-13) (VHH)
VHH: B9 chain
Kd [6]: 0.1 nM | koff [6]: 0.00016 s⁻¹ | kon [6]: 1.36e+06 M⁻¹ s⁻¹

Results, then the binder that gave them:

binding result [7]: binds
B4: B8-NT(8-13) (VHH)
VHH: B2 chain

binding result [6]: binds | binding result [8]: binds
B5: B8V40 (VHH)
chain: B2 chain with F29K, A49S

binding result [6]: binds | binding result [8]: binds
B6: B8V31 (VHH)
chain: B2 chain with F29K

binding result [6]: binds
B7: B8V37 (VHH)
VHH: B2 chain with R71E, D99R

binding result [6]: binds
B10: C5V30 (VHH)
VHH: B9 chain with F29K

binding result [7]: binds
B11: C5neg-NT(8-13) (VHH)
VHH: B9 chain with Y96A, L98A

From doi:10.1101/2025.05.23.649291 (bioRxiv, 2025)
